The record followed here is US20200148768A1 (STCUBE, published 2020).

One assay addresses T1, mouse BTN1A1-ECD-Fc (mouse; human, UniProt Q62556 27-247).
T1 construct: also called human IgG1-Fc-tagged mouse BTN1A1-ECD (dimer); mBTN1A1-Fc
T1 chain: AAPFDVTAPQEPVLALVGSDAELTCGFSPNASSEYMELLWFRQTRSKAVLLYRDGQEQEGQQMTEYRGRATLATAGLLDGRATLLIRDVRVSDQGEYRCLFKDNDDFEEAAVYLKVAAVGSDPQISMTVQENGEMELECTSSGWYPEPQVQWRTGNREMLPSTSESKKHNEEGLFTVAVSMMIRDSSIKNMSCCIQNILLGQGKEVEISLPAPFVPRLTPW
The assay can be described thus: SPR (Biacore X-100), antibody captured on chip, mouse BTN1A1-ECD-Fc 2-64 nM. On the procedure:
The binding affinity between BTN1A1 and monoclonal anti-BTN1A1 antibodies STC1011, STC1012, and STC1029 was measured by Surface Plasmon Resonance (BIAcore™). Sensorgrams and saturation curves of antibody titrations of with human IgG1-Fc-tagged mouse BTN1A1-ECD (dimer) were recorded.
An Protein capture chip (BIAcore™) was coated with STC1011, STC1012, STC1029, or a control IgG1 antibody. No interaction between the IgG1 control and mouse BTN1A1-His was observed. Mouse BTN1A1-ECD-Fc was injected into the microfluidic channel on a Biacore™ X-100 instrument. KD values were obtained using fitting tools of the BIAevaluation software (BIAcore). FIGS. 29A-C provide sensograms showing real-time binding of dimeric BTN1A1-ECD-Fc (2-64 nM with 2-fold dilution) to immobilized STC1011, STC1012, and STC1029.
(In general: SPR reads the build-up and loss of mass on a sensor chip optically.)

In assay [1] the target is T2, human BTN1A1-ECD-Fc (human, N-glycosylated (PNGase F sensitive)).
T2 construct: also called BTN1A1-Fc; hBTN1A1-Fc
The assay can be described thus: direct ELISA, coated BTN1A1-Fc, native Ag. On the procedure:
In order to exclude the possibility that the observed binding was due to human Fc binding, ELISA was performed using human BTN1A1-Fc and human IgG1 control. The antigens BTN1A1-Fc and human IgG1 were coated onto ELISA plate. Antibodies were added to each well and binding was for each antibody determined by standard direct ELISA against the antigens. Human IgG1 binding antibodies were excluded from the candidates.
On the technique in general: In an ELISA, binding on a coated surface is turned into a signal by an enzyme label.

For assay [2], the target named is T3, human BTN1A1 wild type, expressed on cells (human, UniProt Q13410 27-526, glycosylated at N55 and N215 (extracellular)).
T3 construct: also as whole-cell lysate in western blots; also called BTN1A1 WT
T3 sequence: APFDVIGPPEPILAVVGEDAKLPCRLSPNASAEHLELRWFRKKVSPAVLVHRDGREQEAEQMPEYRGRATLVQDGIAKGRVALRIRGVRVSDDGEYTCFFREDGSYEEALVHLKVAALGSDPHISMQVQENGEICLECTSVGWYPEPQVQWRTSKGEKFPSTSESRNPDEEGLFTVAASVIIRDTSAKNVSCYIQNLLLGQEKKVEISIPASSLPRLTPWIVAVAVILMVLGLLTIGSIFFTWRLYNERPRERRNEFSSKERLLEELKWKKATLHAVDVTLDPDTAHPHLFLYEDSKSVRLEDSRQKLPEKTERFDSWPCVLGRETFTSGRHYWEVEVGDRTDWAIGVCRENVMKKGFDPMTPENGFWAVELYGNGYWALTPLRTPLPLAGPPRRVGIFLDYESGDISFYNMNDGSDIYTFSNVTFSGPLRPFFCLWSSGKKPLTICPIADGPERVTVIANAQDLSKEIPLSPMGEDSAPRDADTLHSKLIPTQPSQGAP
The assay can be described thus: FACS, HEK293T overexpressing BTN1A1, FITC secondary. On the procedure: To identify anti-BTN1A1-Fc MAbs that were specific for and which preferentially bound human BTN1A1-Fc antigen, different types of assays were performed. In a screening assay to detect preferential binding of MAbs to BTN1A1, antibody binding was determined based on the measurement of fluorescence intensity through FACS analysis (using cell membrane bound proteins). By way of example, the assay was performed using the HEK293T human embryonic kidney cell line. Illustratively, HEK293T cells overexpressing BTN1A1 were incubated with anti-BTN1A1 antibodies existing in hybridoma culture supernatant. After washing, secondary antibodies conjugated with FITC were added as detection agent. Fluorescence intensity (measured fluorescence intensity, MFI) was measured via FACS I flow cytometry analysis to assess the relative binding of the anti-BTN1A1 antibodies to membrane bound BTN1A1 WT on cells. […] Based on the binding analysis, sixty seven candidate MAb-producing hybridomas were selected, grown in ADCF medium, and their supernatant containing monoclonal antibody was concentrated and purified.

The target in assay [3] is T2, human BTN1A1-ECD-Fc. The assay can be described thus: direct ELISA, coated BTN1A1-Fc, denatured Ag.
Assay [4] has as its target T2, human BTN1A1-ECD-Fc. Briefly: Octet BLI, anti-mouse Fc capture. The protocol: Using a biosensor coated with anti-mouse Fc capture antibody, KD was determined by Kon and Koff. Antibodies with higher affinity (nanomolar range) were selected. Epitope binning is also used to categorize the epitope binding characteristics of panels of antibodies against a single target. This epitope binning experiment was designed to determine whether two different antibodies bind to the same epitope. If two antibodies bind to the same epitope of the antigen, then the binding of the first antibody will preclude the binding if the second antibody. If each antibody in a tested pair binds to a completely independent epitope, then binding of the first antibody will have no effect on the binding of the second. Through repeated testing, the antibodies are grouped according to epitope binding specificity. This experiment was performed using the Octet Red96 System (Pall ForteBio) with Bio-Layer Interferometry (BLI) to detect and analyze the interaction of biological molecules. Antigen was bound to the disposable sensors, then additional binding of antibody to the antigen was measured by change in delay of the reflection of the light passing through the sensor. A longer delay is indicative of more mass bound to the sensor, and this value is used to determine the degree of protein-antibody interaction.

The target in another assay is T4, human BTN1A1-ECD-His6 (human, UniProt Q13410 27-242, N-glycosylated (PNGase F sensitive)).
T4 construct: also called BTN1A1-His; hBTN1A1-His
T4 sequence: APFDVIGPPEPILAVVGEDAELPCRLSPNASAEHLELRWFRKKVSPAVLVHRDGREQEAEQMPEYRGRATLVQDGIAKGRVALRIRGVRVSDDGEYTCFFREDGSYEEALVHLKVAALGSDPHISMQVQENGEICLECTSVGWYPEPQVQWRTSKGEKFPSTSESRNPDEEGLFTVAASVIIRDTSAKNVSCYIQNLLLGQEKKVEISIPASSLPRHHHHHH
The assay can be described thus: western blot after SDS-PAGE, native lanes (no DTT, no boiling) and reduced lanes (DTT, boiling). The text has this:
FIG. 34—Dimer-specific binding of BTN1A1 antibody. FIG. 34 first panel from the left is an image of Coomassie blue stained SDS-PAGE gel, showing locations of monomer and dimer forms of the BTN1A1 protein in both native and reduced conditions along with a size standard. The second through fifth panels show western blots visualizing the monomer and dimer forms of the BTN1A1 protein in both native and reduced conditions using STC810, STC2602, STC2714 and STC 2781 antibody, respectively.
To determine the conformational specificity, Western blot analysis was performed using both dimer form of BTN1A1 (Fc fusion protein extracellular domain of BTN1A1) and monomer form of BTN1A1 (His-tagged protein of extracellular domain of BTN1A1). Proteins were treated with DTT (a reducing agent) and boiling or without reducing and denaturing by boiling. After running the proteins on SDS-PAGE, Western blot was performed by a standard protocol (FIG. 34). In a native condition (without a reducing agent and boiling), STC2714 recognized only Fc fusion protein, a dimerized form of BTN1A1 ECD, but not His-tagged protein, a monomer form of BTN1A1 ECD.

B1: STC1029 (antibody, V domains shown)
VH: EVQLQQSGPELVKPGASVKISCKASGYSFTGYFMNWVKQSHGKSLEWIGRINPYNGDTFYNQKFKDKATLTVDTSSSTAHMELRSLTSEESAVYYCARWTTVINFDYWGQGTTLTVSS
VL: SIVMTQTPKFLLVSAGDRVTITCKASQSVSYDVVWYQQKPGQSPKLLMYYVSNRYTGVPDRFTGSGYGTDFTFTISTVQAEDLAVYFCQQDYSSPPTFGGGTKLEIK
notes: kappa; also called mouse monoclonal anti-mouse BTN1A1 Antibody STC1029
In the case of B1, in the assay with mouse BTN1A1-ECD-Fc, the Kd (as a rule, the constant that tells how readily two partners part at equilibrium) was 1.69 nM; the koff (commonly the first-order rate constant of dissociation) is 0.000427 s⁻¹; the kon (usually the second-order rate constant of association) was found to be 251000 M⁻¹ s⁻¹.

B2: STC1012 (antibody, V domains shown)
VH: EVMLVESGGALVKPGGSLKLSCAASGFTFSNYVMSWVRQTPEKRLEWVATISSGGSYTNYPDSVKGRFIISRDNARNTLYLQMSSLRSEDTAIYYCVREGDGFYVFDYWGLGTTLTVSS
VL: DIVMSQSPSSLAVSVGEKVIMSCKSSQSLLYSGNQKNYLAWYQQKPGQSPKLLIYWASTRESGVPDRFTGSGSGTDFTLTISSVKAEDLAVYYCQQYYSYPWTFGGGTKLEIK
notes: kappa; pHrodo-labeled in the internalization assay; also called mouse monoclonal anti-mouse BTN1A1 antibody STC1012
In the case of B2, in the assay with mouse BTN1A1-ECD-Fc, the Kd stood at 4.1 nM, the koff amounted to 0.000599 s⁻¹ and the kon turned out to be 146000 M⁻¹ s⁻¹.

B3: STC2602 (antibody, V domains shown)
VH: EVQLQQSGPELVKPGASVKISCKASGFSFIGYYIDWVKQSPGKSLEWIGYIYPSNGETSYHQKCKGKATLTVDKSSSTVNMQLNSLTSEDSAVYYCARYGNYDWFFDVWGAGTTVTVSS
VL: QIVLTQSPAIMSASPGEKVTITCSASSSVSYMHWFQQKPGTSPKFWIYSTSNLASGVPIRFSGSGSGTSYSLTISRMEAEDAATYYCQQRSSYPYTFGGGTKLEIK
Turning to B3, the “ELISA (Native Ag)” value in the assay with human BTN1A1-ECD-Fc [1] came to 1.39. In addition, the “FACS (MFI)” value in assay [2] was 69.5. Further, in the assay with human BTN1A1-ECD-Fc [3], the “ELISA (Denatured Ag)” value is 0.128. This molecule showed a Kd with human BTN1A1-ECD-Fc [4] of 2.35 nM. Moreover, the binding result in the assay with human BTN1A1-ECD-His6 was “no binding”.

B4: STC2739 (antibody, V domains shown)
VH: QVQLKQSGPGLVQPSQSLSITCTVSGFSLTTHGVNWVRQSPGKGLEWLGVIWSGGSTDYNAAFISRLSISKDNSKSQVFFKMNSLQANDTAIYYCARPYYYGAMDYWGQGTSVTVSS
VL: QIVLTQSPSIMSASPGEKVTITCSASSSVSYIHWFQQKPGTSPKLWIYSTSNLASGVPARFSGSGSGTSYSLTISRMEAEDAATYYCQQRSIYPLTFGAGTKLELK
In the case of B4, the “ELISA (Native Ag)” value with human BTN1A1-ECD-Fc [1] turned out to be 0.956. Moreover, the “FACS (MFI)” value in assay [2] turned out to be 841. The “ELISA (Denatured Ag)” value with human BTN1A1-ECD-Fc [3] is 0.418. This molecule also yielded a Kd with human BTN1A1-ECD-Fc [4] of 0.0885 nM.

B5: STC2778 (antibody, V domains shown)
VH: QIQLVQSGPELKKPGETVKISCKASGYSFTNYGMNWVKQAPGKGLKWMGWINIYTGETTYGDDFKGRFAFSLETSASTAYLQINNLRSEDTATYFCVRGGTMIMYWGQGTTLTVSS
VL: DIVLTQSPATLSVTPGDSVSLSCRASQSISNNLHWHQQKSHESPRLLIKYASQSMSGIPSRFSGSGSGTDFTLSINSVETEDFGMYFCQQSDSWPLTFGAGTKLELK
Consider B5, for which the “ELISA (Native Ag)” value with human BTN1A1-ECD-Fc [1] was 1.8. The “FACS (MFI)” value in assay [2] amounted to 2340. Moreover, the “ELISA (Denatured Ag)” value with human BTN1A1-ECD-Fc [3] was determined as 1.44. Further, in the assay with human BTN1A1-ECD-Fc [4], the Kd was 0.436 nM.
